Measurements: the supplement of paper PMC5998384

How the values were obtained:
HeLa Kyoto [1] = test: solubility in G1/S (NP-40 vs SDS abundance) (log2 ratio); higher = more soluble; conditions: cell cycle stage: G1/S
HeLa Kyoto [2] = test: melting temperature (median over replicates), in situ; higher = more thermally stable
HeLa Kyoto [3] = test: solubility change mitosis vs G1/S (difference of NP-40 vs SDS log2 ratios) (log2 ratio difference); higher = more soluble in mitosis
HeLa Kyoto [4] = test: thermal stability score vs G1/S (z-score of summed log2 fold changes over temperatures); higher = more thermally stable than in G1/S
[5] = cell cycle stage: early G1 (4.5 h after nocodazole release)
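Throughout, for melting temperature (median over replicates), in situ: HeLa Kyoto cells synchronized by double thymidine or nocodazole block, proteins quantified by TMT10plex mass spectrometry, three independent biological replicates.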
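Throughout, for solubility change mitosis vs G1/S (difference of NP-40 vs SDS log2 ratios): synchronized HeLa Kyoto cells (double thymidine block for G1/S, nocodazole release for mitosis), protein amounts in NP-40 versus SDS lysates quantified by mass spectrometry, three biological replicates.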
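Throughout, for solubility in G1/S (NP-40 vs SDS abundance): HeLa Kyoto cells arrested at G1/S by double thymidine block, proteins quantified by TMT10plex mass spectrometry in mild NP-40 versus SDS extracts, three biological replicates.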
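Throughout, for thermal stability score vs G1/S (z-score of summed log2 fold changes over temperatures): synchronized HeLa Kyoto cells, proteins quantified by TMT10plex mass spectrometry, three biological replicates, mitosis taken 0.5 h after nocodazole release, G1/S directly after double thymidine block.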

Row | Sequence | solubility in G1/S (log2) (HeLa Kyoto [1]) | melting temperature (HeLa Kyoto [2]; cell cycle stage: G1/S) | melting temperature (HeLa Kyoto [2]; cell cycle stage: mitosis) | solubility change mitosis (log2) (HeLa Kyoto [3]) | thermal stability score (HeLa Kyoto [4]; [5]) | thermal stability score (HeLa Kyoto [4]; cell cycle stage: mitosis)
1 | MKRSSVSSGGAGRLSMQELRSQDVNKQGLYTPQTKEKPTFGKLSINKPTSERKVSLFGKRTSGHGSRNSQLGIFSSSEKIKDPRPLNDKAFIQQCIRQLCEFLTENGYAHNVSMKSLQAPSVKDFLKIFTFLYGFLCPSYELPDTKFEEEVPRIFKDLGYPFALSKSSMYTVGAPHTWPHIVAALVWLIDCIKIHTAMKESSPLFDDGQPWGEETEDGIMHNKLFLDYTIKCYESFMSGADSFDEMNAELQSKLKDLFNVDAFKLESLEAKNRALNEQIARLEQEREKEPNRLESLRKLKASLQGDVQKYQAYMSNLESHSAILDQKLNGLNEEIARVELECETIKQENTRLQNIIDNQKYSVADIERINHERNELQQTINKLTKDLEAEQQKLWNEELKYARGKEAIETQLAEYHKLARKLKLIPKGAENSKGYDFEIKFNPEAGANCLVKYRAQVYVPLKELLNETEEEINKALNKKMGLEDTLEQLNAMITESKRSVRTLKEEVQKLDDLYQQKIKEAEEEDEKCASELESLEKHKHLLESTVNQGLSEAMNELDAVQREYQLVVQTTTEERRKVGNNLQRLLEMVATHVGSVEKHLEEQIAKVDREYEECMSEDLSENIKEIRDKYEKKATLIKSSEE [NDC80] | 0.548 | 47.4 °C | 47.7 °C | 0.0863 | 0.223 | 0.715
2 | MKRSVAVWLLVGLSLGVPQFGKGDICDPNPCENGGICLPGLADGSFSCECPDGFTDPNCSSVVEVASDEEEPTSAGPCTPNPCHNGGTCEISEAYRGDTFIGYVCKCPRGFNGIHCQHNINECEVEPCKNGGICTDLVANYSCECPGEFMGRNCQYKCSGPLGIEGGIISNQQITASSTHRALFGLQKWYPYYARLNKKGLINAWTAAENDRWPWIQINLQRKMRVTGVITQGAKRIGSPEYIKSYKIAYSNDGKTWAMYKVKGTNEDMVFRGNIDNNTPYANSFTPPIKAQYVRLYPQVCRRHCTLRMELLGCELSGCSEPLGMKSGHIQDYQITASSIFRTLNMDMFTWEPRKARLDKQGKVNAWTSGHNDQSQWLQVDLLVPTKVTGIITQGAKDFGHVQFVGSYKLAYSNDGEHWTVYQDEKQRKDKVFQGNFDNDTHRKNVIDPPIYARHIRILPWSWYGRITLRSELLGCTEEE [EDIL3] | -0.122 | – | 55.6 °C | -0.0391 | 1.05 | 0.661
3 | MKSARAKTPRKPTVKKGSQTNLKDPVGVYCRVRPLGFPDQECCIEVINNTTVQLHTPEGYRLNRNGDYKETQYSFKQVFGTHTTQKELFDVVANPLVNDLIHGKNGLLFTYGVTGSGKTHTMTGSPGEGGLLPRCLDMIFNSIGSFQAKRYVFKSNDRNSMDIQCEVDALLERQKREAMPNPKTSSSKRQVDPEFADMITVQEFCKAEEVDEDSVYGVFVSYIEIYNNYIYDLLEEVPFDPIKPKPPQSKLLREDKNHNMYVAGCTEVEVKSTEEAFEVFWRGQKKRRIANTHLNRESSRSHSVFNIKLVQAPLDADGDNVLQEKEQITISQLSLVDLAGSERTNRTRAEGNRLREAGNINQSLMTLRTCMDVLRENQMYGTNKMVPYRDSKLTHLFKNYFDGEGKVRMIVCVNPKAEDYEENLQVMRFAEVTQEVEVARPVDKAICGLTPGRRYRNQPRGPVGNEPLVTDVVLQSFPPLPSCEILDINDEQTLPRLIEALEKRHNLRQMMIDEFNKQSNAFKALLQEFDNAVLSKENHMQGKLNEKEKMISGQKLEIERLEKKNKTLEYKIEILEKTTTIYEEDKRNLQQELETQNQKLQRQFSDKRRLEARLQGMVTETTMKWEKECERRVAAKQLEMQNKLWVKDEKLKQLKAIVTEPKTEKPERPSRERDREKVTQRSVSPSPVPLSSNYIAQISNGQQLMSQPQLHRRSNSCSSISVASCISEWEQKIPTYNTPLKVTSIARRRQQEPGQSKTCIVSDRRRGMYWTEGREVVPTFRNEIEIEEDHCGRLLFQPDQNAPPIRLRHRRSRSAGDRWVDHKPASNMQTETVMQPHVPHAITVSVANEKALAKCEKYMLTHQELASDGEIETKLIKGDIYKTRGGGQSVQFTDIETLKQESPNGSRKRRSSTVAPAQPDGAESEWTDVETRCSVAVEMRAGSQLGPGYQHHAQPKRKKP [KIF23] | -0.255 | 49.3 °C | 49.6 °C | -0.112 | 0.0501 | 0.448
4 | MKSLKSRLRRQDVPGPASSGAAAASAHAADWNKYDDRLMKAAERGDVEKVTSILAKKGVNPGKLDVEGRSVFHVVTSKGNLECLNAILIHGVDITTSDTAGRNALHLAAKYGHALCLQKLLQYNCPTEHADLQGRTALHDAAMADCPSSIQLLCDHGASVNAKDVDGRTPLVLATQMSRPTICQLLIDRGADVNSRDKQNRTALMLGCEYGCRDAVEVLIKNGADISLLDALGHDSSYYARIGDNLDILTLLKTASENTNKGRELWKKGPSLQQRNLTHMQDEVNVKSHQREHQNIQDLEIENEDLKERLRKIQQEQRILLDKVNGLQLQLNEEVMVADDLESEREKLKSLLAAKEKQHEESLRTIEALKNRFKYFESDHLGSGSHFSNRKEDMLLKQGQMYMADSQCTSPGIPAHMQSRSMLRPLELSLPSQTSYSENEILKKELEAMRTFCESAKQDRLKLQNELAHKVAECKALALECERVKEDSDEQIKQLEDALKDVQKRMYESEGKVKQMQTHFLALKEHLTSEAASGNHRLTEELKDQLKDLKVKYEGASAEVGKLRNQIKQNEMIVEEFKRDEGKLIEENKRLQKELSMCEMEREKKGRKVTEMEGQAKELSAKLALSIPAEKFENMKSSLSNEVNEKAKKLVEMEREHEKSLSEIRQLKRELENVKAKLAQHVKPEEHEQVKSRLEQKSGELGKKITELTLKNQTLQKEIEKVYLDNKLLKEQAHNLTIEMKNHYVPLKVSEDMKKSHDAIIDDLNRKLLDVTQKYTEKKLEMEKLLLENDSLSKDVSRLETVFVPPEKHEKEIIALKSNIVELKKQLSELKKKCGEDQEKIHALTSENTNLKKMMSNQYVPVKTHEEVKMTLNDTLAKTNRELLDVKKKFEDINQEFVKIKDKNEILKRNLENTQNQIKAEYISLAEHEAKMSSLSQSMRKVQDSNAEILANYRKGQEEIVTLHAEIKAQKKELDTIQECIKVKYAPIVSFEECERKFKATEKELKDQLSEQTQKYSVSEEEVKKNKQENDKLKKEIFTLQKDLRDKTVLIEKSHEMERALSRKTDELNKQLKDLSQKYTEVKNVKEKLVEENAKQTSEILAVQNLLQKQHVPLEQVEALKKSLNGTIENLKEELKSMQRCYEKEQQTVTKLHQLLENQKNSSVPLAEHLQIKEAFEKEVGIIKASLREKEEESQNKMEEVSKLQSEVQNTKQALKKLETREVVDLSKYKATKSDLETQISSLNEKLANLNRKYEEVCEEVLHAKKKEISAKDEKELLHFSIEQEIKDQKERCDKSLTTITELQRRIQESAKQIEAKDNKITELLNDVERLKQALNGLSQLTYTSGNPTKRQSQLIDTLQHQVKSLEQQLADADRQHQEVIAIYRTHLLSAAQGHMDEDVQEALLQIIQMRQGLVC [UACA] | 0.233 | 48.5 °C | 50.6 °C | -0.0155 | 1.19 | 0.0635
5 | MKSNPAIQAAIDLTAGAAGGTACVLTGQPFDTMKVKMQTFPDLYRGLTDCCLKTYSQVGFRGFYKGTSPALIANIAENSVLFMCYGFCQQVVRKVAGLDKQAKLSDLQNAAAGSFASAFAALVLCPTELVKCRLQTMYEMETSGKIAKSQNTVWSVIKSILRKDGPLGFYHGLSSTLLREVPGYFFFFGGYELSRSFFASGRSKDELGPVPLMLSGGVGGICLWLAVYPVDCIKSRIQVLSMSGKQAGFIRTFINVVKNEGITALYSGLKPTMIRAFPANGALFLAYEYSRKLMMNQLEAY [SLC25A15] | 0.00397 | 58 °C | 56.6 °C | -0.0497 | -2.21 | -1.66
